Source: publication PMC5100913 (PLoS ONE, 2016)

Biological target: T1, Aha1 (yeast, UniProt Q12449 1-350)
T1 sequence (looked up): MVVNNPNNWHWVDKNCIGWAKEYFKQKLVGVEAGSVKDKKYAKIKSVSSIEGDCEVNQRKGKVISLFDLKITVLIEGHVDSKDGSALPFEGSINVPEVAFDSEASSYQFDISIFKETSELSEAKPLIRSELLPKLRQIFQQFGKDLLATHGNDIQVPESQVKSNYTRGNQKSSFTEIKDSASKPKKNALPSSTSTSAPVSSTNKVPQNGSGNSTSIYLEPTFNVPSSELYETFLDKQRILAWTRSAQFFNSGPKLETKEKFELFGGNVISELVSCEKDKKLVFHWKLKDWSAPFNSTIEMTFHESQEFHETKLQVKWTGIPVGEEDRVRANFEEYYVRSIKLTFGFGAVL
Assay: cell-based or functional assay

B1: yeast Hsp90 (natural protein)
chain: not shown
stimulation of the chaperone's ATPase activity by Aha1 (NADH coupled enzymatic assay, hsp90:Aha1 1:2): 10 fold
